Measurements taken from patent publication US20220064316A1 (published 2022).

B1: BCMA-4 scFv (139103) (scFv)
scFv: QVQLVESGGGLVQPGRSLRLSCAASGFTFSNYAMSWVRQAPGKGLGWVSGISRSGENTYYADSVKGRFTISRDNSKNTLYLQMNSLRDEDTAVYYCARSPAHYYGGMDVWGQGTTVTVSSASGGGGSGGRASGGGGSDIVLTQSPGTLSLSPGERATLSCRASQSISSSFLAWYQQKPGQAPRLLIYGASRRATGIPDRFSGSGSGTDFTLTISRLEPEDSAVYYCQQYHSSPSWTFGQGTKLEIK
notes: also called B4
B2: BCMA-15 scFv (139114) (scFv)
scFv: EVQLVESGGGLVQPGGSLRLSCAVSGFALSNHGMSWVRRAPGKGLEWVSGIVYSGSTYYAASVKGRFTISRDNSRNTLYLQMNSLRPEDTAIYYCSAHGGESDVWGQGTTVTVSSASGGGGSGGRASGGGGSEIVLTQSPGTLSLSPGERATLSCRASQSIGSSSLAWYQQKPGQAPRLLMYGASSRASGIPDRFSGSGSGTDFTLTISRLEPEDFAVYYCQQYAGSPPFTFGQGTKVEIK
notes: also called B15; BMCA-15
B3: BCMA-13 scFv (139112) (scFv)
scFv: QVQLVESGGGLVQPGGSLRLSCAVSGFALSNHGMSWVRRAPGKGLEWVSGIVYSGSTYYAASVKGRFTISRDNSRNTLYLQMNSLRPEDTAIYYCSAHGGESDVWGQGTTVTVSSASGGGGSGGRASGGGGSDIRLTQSPSPLSASVGDRVTITCQASEDINKFLNWYHQTPGKAPKLLIYDASTLQTGVPSRFSGSGSGTDFTLTINSLQPEDIGTYYCQQYESLPLTFGGGTKVEIK
notes: also called B13
B4: BCMA-Fc antigen (R&D Systems) (Fc fusion)
chain: MLQMAGQCSQNEYFDSLLHACIPCQLRCSSNTPPLTCQRYCNASVTNSVKGTNA
notes: also called BCMA fc fusion protein (R&D Systems, cat #193-BC-050); recombinant BCMA-Fc; not shown: Fc portion of the bought fusion protein

Tests used:
[1] = biological target: T1, BCMA (recombinant, form not given) (UniProt Q02223 1-54, limits assumed); assay: affinity assay (RU biosensor), 1:1 Binding fit
T1 construct: one entry is used for both; also called Bio-BCMA; BCMA substrate
T1 sequence (looked up): B4 chain

[2] = biological target: T2, BCMA-10 CAR (139109); assay: flow cytometry; BCMA-Fc antigen staining of CAR-transduced SupT1 cells
T2 construct: also called B10; EG63-98LB

Row | Binder | Kd [1] [nM] | koff [1] [s⁻¹] | kon [1] [M⁻¹ s⁻¹] | binding result [2]
1 | B1 | 1 | 0.0006 | 617000 | –
2 | B2 | 9.3 | 0.00187 | 201000 | –
3 | B3 | 24.5 | 0.00161 | 65600 | –
4 | B4 | – | – | – | binds
